From article PMC6522730, “NUDIX hydrolases with inorganic polyphosphate exo- and endopolyphosphatase activities in the glycosome, cytosol and nucleus of Trypanosoma brucei” (Bioscience Reports, 2019)

What was measured:
[1] = substrate: Nc1ncnc2c1ncn2[C@@H]1O[C@H](COP(=O)(O)OP(=O)(O)O)[C@@H](O)[C@H]1O; assay: Pi release, malachite green assay; assay type: biochemical, Trypanosoma brucei; conditions: pH 8.0, 37°C, 6 mM MgCl2, 50 mM NaCl, 40 mM Hepes, 10 min
Source text: (§1) Pi release, malachite green assay on TbNH2

[2] = substrate: Nc1ncnc2c1ncn2[C@@H]1O[C@H](COP(=O)(O)OP(=O)(O)OP(=O)(O)O)[C@@H](O)[C@H]1O; assay: Pi release, malachite green assay; assay type: biochemical, Trypanosoma brucei; conditions: pH 8.0, 37°C, 6 mM MgCl2, 50 mM NaCl, 40 mM Hepes, 10 min
Source text: as §1

B1: TbNH2 (Trypanosoma brucei brucei TREU927) (protein)
chain: MYRKNVCVVIFNEDLNFLACQRIHEDKFQFVQGGVEEGDADIIRAAYREVHEEVGLFPEDLRLIGEIMPPSGDPHEFRYILHEGANLRHFGYVGQQQRLFLFYTPSSTIQRVRLVPPKGSVAKQEFSHVEWLPIDEIIERCPKEKQHIFVAVSKVAIPMAKAFLKTRSSI
notes: full-length ORF in pET32 Ek/LIC (N-terminal thioredoxin/His tag), E. coli BL21-CodonPlus (DE3), nickel column
Km [1]: 46.5 ± 6.3 µM | Vmax [1]: 0.0056 µmol/min/mg | kcat/Km [1]: 270000 M⁻¹ s⁻¹ | Km [2]: 78.1 ± 16.3 µM | Vmax [2]: 0.0102 µmol/min/mg | kcat/Km [2]: 290000 M⁻¹ s⁻¹
